In patent US20250296960A1, “PEPTIDE COMPOSITIONS AND METHODS OF USE THEREOF” (priority 2022, published 2025):
Numbered stars: 1 amine (or outer) side, 2 acyl side, 3 side chain; on linkers, the order of the positions; unused ones are H or OH. Square brackets hold non-standard residues; d marks the D form. Primed or numbered codes have the meaning given here. Side chains are listed from the residue outwards. Ends that are not written are not given here. * marks the point of attachment. C18 = C18 fatty acid (C16-C22 fatty acids conjugated via γGlu/8-amino-3,6-dioxaoctanoic acid spacers); C18″ = C18 fatty acid moiety (of 2OEG-γGlu-C18, K*); Biotin = O=C1N[C@H]2[C@H](CS[C@H]2CCCCC(=O)*)N1; γGlu = O=C(O)[C@H](CCC(=O)[*:2])N[*:1]; AEEA = NCCOCCOCC(=O)O; Aib = CC(C)(N)C(=O)O

T1: human glucose-dependent insulinotropic polypeptide receptor (GIPR), expressed on CHO-K1 cells (human, UniProt P48546 22-466)
T1 sequence (looked up): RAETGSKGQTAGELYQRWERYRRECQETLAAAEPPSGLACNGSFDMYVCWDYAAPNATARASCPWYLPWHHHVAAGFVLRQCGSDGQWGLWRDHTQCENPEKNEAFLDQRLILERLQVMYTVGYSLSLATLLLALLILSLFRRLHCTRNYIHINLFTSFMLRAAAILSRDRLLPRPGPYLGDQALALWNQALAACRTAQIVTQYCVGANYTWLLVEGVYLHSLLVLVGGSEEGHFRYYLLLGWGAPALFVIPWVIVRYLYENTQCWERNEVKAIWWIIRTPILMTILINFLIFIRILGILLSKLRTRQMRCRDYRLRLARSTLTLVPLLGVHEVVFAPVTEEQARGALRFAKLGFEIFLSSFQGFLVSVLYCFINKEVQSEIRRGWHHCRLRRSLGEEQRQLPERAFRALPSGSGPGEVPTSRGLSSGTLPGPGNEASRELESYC

B1: SEQ ID NO. 89 (peptide)
peptide: Y[Aib]QGTFTSDYSK([AEEA-AEEA-γGlu-C18])LLDYMMQRDFVKWLLEGGPSSGAPPPS-NH2
modifications: not fully specified (residue 24); printed as YAibQGT FTSDY SK*LLD YMMQR DFVB*W LLEGG PSSGA PPPS

These binders were tested against T2, human GLP-1 receptor (GLP-1R), expressed on CHO-K1 cells (human, UniProt P43220 24-463) (assay: cell-based or functional assay).

Point of comparison: Y[Aib]QGTFTSDK([AEEA-AEEA-γGlu-C18″])SKYLDYMMARDFVQWLIEGGPSSGAPPPS-NH2 [Peptide No. 5-1E], “Relative % to native ligand” value 57%. Against it:
- Y[Aib]QGTFTSDYSKYLDYK([AEEA-AEEA-γGlu-C18″])MARDFVQWLIEGGPSSGAPPPS-NH2 [Peptide No. 5-1F] — higher, 61%
- H[Aib]QGTFTSDYSK([AEEA-AEEA-γGlu-C18″])YLDYMMARDFVQWLIEGGPSSGAPPPS-NH2 [Peptide No. 5D] — lower, 35%
- Y[Aib]QGTFTSDYSK([AEEA-AEEA-γGlu-C18″])YLDYMMARDFVQWLIEGGPSSGAPPPS-NH2 [Peptide No. 5-1D] — higher, 151%
- Y[Aib]QGTFTSDYSKYLDYMMARDFVQWLIEGGPSSGAPPPSC-NH2 [Peptide No. 5-1] — higher, 117%

What follows are binders tested against T3, human glucagon receptor (GCGR), expressed on CHO-K1 cells (human, UniProt P47871 26-477) (assay: cell-based or functional assay).
T3 sequence (P47871 26-477): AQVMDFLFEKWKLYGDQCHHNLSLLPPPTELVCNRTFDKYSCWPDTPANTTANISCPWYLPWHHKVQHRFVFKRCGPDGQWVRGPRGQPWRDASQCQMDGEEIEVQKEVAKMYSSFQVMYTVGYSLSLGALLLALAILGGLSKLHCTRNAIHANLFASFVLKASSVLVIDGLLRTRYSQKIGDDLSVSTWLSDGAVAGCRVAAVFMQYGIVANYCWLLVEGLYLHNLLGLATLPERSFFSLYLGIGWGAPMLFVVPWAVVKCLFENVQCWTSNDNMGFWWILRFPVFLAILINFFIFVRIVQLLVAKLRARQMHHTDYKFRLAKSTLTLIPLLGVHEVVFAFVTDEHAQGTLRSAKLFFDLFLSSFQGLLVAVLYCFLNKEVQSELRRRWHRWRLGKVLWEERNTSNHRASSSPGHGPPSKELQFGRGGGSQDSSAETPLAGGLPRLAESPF

Point of comparison: Y[Aib]QGTFTSDYSKYLDYK([AEEA-AEEA-γGlu-C18″])MARDFVQWLIEGGPSSGAPPPS-NH2 [Peptide No. 5-1F], “Relative % to native ligand” value 5030%. Against it:
- H[Aib]QGTFTSDYSK([AEEA-AEEA-γGlu-C18″])YLDYMMARDFVQWLIEGGPSSGAPPPS-NH2 [Peptide No. 5D] — lower, 72%
- Y[Aib]QGTFTSDYSK([AEEA-AEEA-γGlu-C18″])YLDYMMARDFVQWLIEGGPSSGAPPPS-NH2 [Peptide No. 5-1D] — lower, 55%
- Y[Aib]QGTFTSDYSKYLDYMMARDFVQWLIEGGPSSGAPPPSC-NH2 [Peptide No. 5-1] — higher, 6650%
- Y[Aib]QGTFTSDK([AEEA-AEEA-γGlu-C18″])SKYLDYMMARDFVQWLIEGGPSSGAPPPS-NH2 [Peptide No. 5-1E] — lower, 74%

Each binder was assayed against T1, human glucose-dependent insulinotropic … (assay: cell-based or functional assay).

Point of comparison: Y[Aib]QGTFTSDK([AEEA-AEEA-γGlu-C18″])SKYLDYMMARDFVQWLIEGGPSSGAPPPS-NH2 [Peptide No. 5-1E], “Relative % to native ligand” value 1%. Against it:
- Y[Aib]QGTFTSDYSKYLDYK([AEEA-AEEA-γGlu-C18″])MARDFVQWLIEGGPSSGAPPPS-NH2 [Peptide No. 5-1F] — higher, 2%
- H[Aib]QGTFTSDYSK([AEEA-AEEA-γGlu-C18″])YLDYMMARDFVQWLIEGGPSSGAPPPS-NH2 [Peptide No. 5D] — higher, 3%
- Y[Aib]QGTFTSDYSK([AEEA-AEEA-γGlu-C18″])YLDYMMARDFVQWLIEGGPSSGAPPPS-NH2 [Peptide No. 5-1D] — higher, 41%
- Y[Aib]QGTFTSDYSKYLDYMMARDFVQWLIEGGPSSGAPPPSC-NH2 [Peptide No. 5-1] — higher, 13%

Target: T2, human GLP-1 receptor (GLP-1R), …
Experiment: cell-based or functional assay
Remark: another data set of the same source

Point of comparison: Y[Aib]QGTFTSDYSKYLDYMMARDFVQWLIEGGPSSGAPPPSC-NH2 [Peptide No. 5-1], “Ratio vs. GLP-1R” value 100. Against it:
- Y[Aib]QGTFTSDYSKYLDYK([AEEA-AEEA-γGlu-C18″])MARDFVQWLIEGGPSSGAPPPS-NH2 [Peptide No. 5-1F] — the same, 100
- H[Aib]QGTFTSDYSK([AEEA-AEEA-γGlu-C18″])YLDYMMARDFVQWLIEGGPSSGAPPPS-NH2 [Peptide No. 5D] — the same, 100
- Y[Aib]QGTFTSDYSK([AEEA-AEEA-γGlu-C18″])YLDYMMARDFVQWLIEGGPSSGAPPPS-NH2 [Peptide No. 5-1D] — the same, 100
- Y[Aib]QGTFTSDK([AEEA-AEEA-γGlu-C18″])SKYLDYMMARDFVQWLIEGGPSSGAPPPS-NH2 [Peptide No. 5-1E] — the same, 100

Target: T3, human glucagon receptor (GCGR), …
Experiment: cell-based or functional assay
Remark: another data set of the same source

Point of comparison: Y[Aib]QGTFTSDYSKYLDYMMARDFVQWLIEGGPSSGAPPPSC-NH2 [Peptide No. 5-1], “Ratio vs. GLP-1R” value 5660. Against it:
- Y[Aib]QGTFTSDYSKYLDYK([AEEA-AEEA-γGlu-C18″])MARDFVQWLIEGGPSSGAPPPS-NH2 [Peptide No. 5-1F] — higher, 8250
- H[Aib]QGTFTSDYSK([AEEA-AEEA-γGlu-C18″])YLDYMMARDFVQWLIEGGPSSGAPPPS-NH2 [Peptide No. 5D] — lower, 204
- Y[Aib]QGTFTSDYSK([AEEA-AEEA-γGlu-C18″])YLDYMMARDFVQWLIEGGPSSGAPPPS-NH2 [Peptide No. 5-1D] — lower, 36
- Y[Aib]QGTFTSDK([AEEA-AEEA-γGlu-C18″])SKYLDYMMARDFVQWLIEGGPSSGAPPPS-NH2 [Peptide No. 5-1E] — lower, 130

Target: T1, human glucose-dependent insulinotropic …
Experiment: cell-based or functional assay
Remark: another data set of the same source

Point of comparison: Y[Aib]QGTFTSDYSKYLDYMMARDFVQWLIEGGPSSGAPPPSC-NH2 [Peptide No. 5-1], “Ratio vs. GLP-1R” value 11. Against it:
- Y[Aib]QGTFTSDYSKYLDYK([AEEA-AEEA-γGlu-C18″])MARDFVQWLIEGGPSSGAPPPS-NH2 [Peptide No. 5-1F] — lower, 3
- H[Aib]QGTFTSDYSK([AEEA-AEEA-γGlu-C18″])YLDYMMARDFVQWLIEGGPSSGAPPPS-NH2 [Peptide No. 5D] — lower, 8
- Y[Aib]QGTFTSDYSK([AEEA-AEEA-γGlu-C18″])YLDYMMARDFVQWLIEGGPSSGAPPPS-NH2 [Peptide No. 5-1D] — higher, 27
- Y[Aib]QGTFTSDK([AEEA-AEEA-γGlu-C18″])SKYLDYMMARDFVQWLIEGGPSSGAPPPS-NH2 [Peptide No. 5-1E] — lower, 1

Target: T2, human GLP-1 receptor (GLP-1R), …
Experiment: cell-based or functional assay
Remark: another data set of the same source

Point of comparison: Y[Aib]QGTFTSDYSKYLDYMMARDFVQWLIEGGPSSGAPPPSC-NH2 [Peptide No. 5-1], “Relative % to non-lipidated peptide” value 100%. Against it:
- Y[Aib]QGTFTSDYSKYLDYK([AEEA-AEEA-γGlu-C18″])MARDFVQWLIEGGPSSGAPPPS-NH2 [Peptide No. 5-1F] — lower, 52%
- H[Aib]QGTFTSDYSK([AEEA-AEEA-γGlu-C18″])YLDYMMARDFVQWLIEGGPSSGAPPPS-NH2 [Peptide No. 5D] — lower, 6%
- Y[Aib]QGTFTSDYSK([AEEA-AEEA-γGlu-C18″])YLDYMMARDFVQWLIEGGPSSGAPPPS-NH2 [Peptide No. 5-1D] — higher, 129%
- Y[Aib]QGTFTSDK([AEEA-AEEA-γGlu-C18″])SKYLDYMMARDFVQWLIEGGPSSGAPPPS-NH2 [Peptide No. 5-1E] — lower, 48%

Target: T3, human glucagon receptor (GCGR), …
Experiment: cell-based or functional assay
Remark: another data set of the same source

Point of comparison: Y[Aib]QGTFTSDK([AEEA-AEEA-γGlu-C18″])SKYLDYMMARDFVQWLIEGGPSSGAPPPS-NH2 [Peptide No. 5-1E], “Relative % to non-lipidated peptide” value 1%. Against it:
- Y[Aib]QGTFTSDYSKYLDYK([AEEA-AEEA-γGlu-C18″])MARDFVQWLIEGGPSSGAPPPS-NH2 [Peptide No. 5-1F] — higher, 76%
- H[Aib]QGTFTSDYSK([AEEA-AEEA-γGlu-C18″])YLDYMMARDFVQWLIEGGPSSGAPPPS-NH2 [Peptide No. 5D] — higher, 10%
- Y[Aib]QGTFTSDYSK([AEEA-AEEA-γGlu-C18″])YLDYMMARDFVQWLIEGGPSSGAPPPS-NH2 [Peptide No. 5-1D] — the same, 1%
- Y[Aib]QGTFTSDYSKYLDYMMARDFVQWLIEGGPSSGAPPPSC-NH2 [Peptide No. 5-1] — higher, 100%

Target: T1, human glucose-dependent insulinotropic …
Experiment: cell-based or functional assay
Remark: another data set of the same source

Point of comparison: Y[Aib]QGTFTSDYSKYLDYK([AEEA-AEEA-γGlu-C18″])MARDFVQWLIEGGPSSGAPPPS-NH2 [Peptide No. 5-1F], “Relative % to non-lipidated peptide” value 14%. Against it:
- H[Aib]QGTFTSDYSK([AEEA-AEEA-γGlu-C18″])YLDYMMARDFVQWLIEGGPSSGAPPPS-NH2 [Peptide No. 5D] — higher, 93%
- Y[Aib]QGTFTSDYSK([AEEA-AEEA-γGlu-C18″])YLDYMMARDFVQWLIEGGPSSGAPPPS-NH2 [Peptide No. 5-1D] — higher, 323%
- Y[Aib]QGTFTSDYSKYLDYMMARDFVQWLIEGGPSSGAPPPSC-NH2 [Peptide No. 5-1] — higher, 100%
- Y[Aib]QGTFTSDK([AEEA-AEEA-γGlu-C18″])SKYLDYMMARDFVQWLIEGGPSSGAPPPS-NH2 [Peptide No. 5-1E] — lower, 5%

Target: T2, human GLP-1 receptor (GLP-1R), …
Experiment: cell-based or functional assay
Remark: another data set of the same source

Point of comparison: B1, “Ratio vs. GLP-1R” value 100. Against it:
- Y[Aib]QGTFTSDYSK([AEEA-AEEA-γGlu-C18])YLDYMMQRDFVK(Biotin)WLLEGGPSSGAPPPS (ends and bridges not checked) [SEQ ID NO. 97] — the same, 100

Point of comparison: B1, “Relative % to native ligand” value 38%. Against it:
- Y[Aib]QGTFTSDYSK([AEEA-AEEA-γGlu-C18])YLDYMMQRDFVK(Biotin)WLLEGGPSSGAPPPS (ends and bridges not checked) [SEQ ID NO. 97] — higher, 106%

Target: T3, human glucagon receptor (GCGR), …
Experiment: cell-based or functional assay
Remark: another data set of the same source

Point of comparison: Y[Aib]QGTFTSDYSK([AEEA-AEEA-γGlu-C18])YLDYMMQRDFVK(Biotin)WLLEGGPSSGAPPPS (ends and bridges not checked) [SEQ ID NO. 97], “Ratio vs. GLP-1R” value 28. Against it:
- B1 — higher, 117

Point of comparison: B1, “Relative % to native ligand” value 45%. Against it:
- Y[Aib]QGTFTSDYSK([AEEA-AEEA-γGlu-C18])YLDYMMQRDFVK(Biotin)WLLEGGPSSGAPPPS (ends and bridges not checked) [SEQ ID NO. 97] — lower, 30%

Target: T1, human glucose-dependent insulinotropic …
Experiment: cell-based or functional assay
Remark: another data set of the same source

Point of comparison: Y[Aib]QGTFTSDYSK([AEEA-AEEA-γGlu-C18])YLDYMMQRDFVK(Biotin)WLLEGGPSSGAPPPS (ends and bridges not checked) [SEQ ID NO. 97], “Ratio vs. GLP-1R” value 117. Against it:
- B1 — higher, 399

Point of comparison: B1, “Relative % to native ligand” value 154%. Against it:
- Y[Aib]QGTFTSDYSK([AEEA-AEEA-γGlu-C18])YLDYMMQRDFVK(Biotin)WLLEGGPSSGAPPPS (ends and bridges not checked) [SEQ ID NO. 97] — lower, 123%
